The record followed here is publication PMC11952669 (Research Square, 2025).

Usually Kd stands for the free concentration of one partner at which half of the binding sites on the other are occupied at equilibrium, for simple one-to-one binding. High values mean a looser complex, low ones a tighter complex.

The target in data set [1] is Biotinylated VsCoV-a7 RBD (residues 356–556) (bat MERSr-CoV VsCoV-a7 (from Vespertilio sinensis)). The experiment in a line: BLI. (Biolayer interferometry detects binding as a change in optical thickness at a sensor tip.)
The data set “cryo-EM structure” concerns the molecule itself. The experiment in a line: cryo-EM structure.

In data set [1], “E.fus ACE2 ectodomain (residues 1–747), dimeric (receptor)” gave an equilibrium dissociation constant (Kd) of 0.816 µM.

B1: R.nor ACE2 ectodomain (residues 1–741), dimeric (receptor)
chain: QSLIEEKAESFLNKFNQEAEDLSYQSSLASWNYNTNITEENAQKMNEAAAKWSAFYEEQSKIAQNFSLQEIQNATIKRQLKALQQSGSSALSPDKNKQLNTILNTMSTIYSTGKVCNSMNPQECFLLEPGLDEIMATSTDYNRRLWAWEGWRAEVGKQLRPLYEEYVVLKNEMARANNYEDYGDYWRGDYEAEGVEGYNYNRNQLIEDVENTFKEIKPLYEQLHAYVRTKLMEVYPSYISPTGCLPAHLLGDMWGRFWTNLYPLTTPFLQKPNIDVTDAMVNQSWDAERIFKEAEKFFVSVGLPQMTPGFWTNSMLTEPGDDRKVVCHPTAWDLGHGDFRIKMCTKVTMDNFLTAHHEMGHIQYDMAYAKQPFLLRNGANEGFHEAVGEIMSLSAATPKHLKSIGLLPSNFQEDNETEINFLLKQALTIVGTLPFTYMLEKWRWMVFQDKIPREQWTKKWWEMKREIVGVVEPLPHDETYCDPASLFHVSNDYSFIRYYTRTIYQFQFQEALCQAAKHDGPLHKCDISNSTEAGQKLLNMLSLGNSGPWTLALENVVGSRNMDVKPLLNYFQPLFVWLKEQNRNSTVGWSTDWSPYADQSIKVRISLKSALGKNAYEWTDNEMYLFRSSVAYAMREYFSREKNQTVPFGEADVWVSDLKPRVSFNFFVTSPKNVSDIIPRSEVEEAIRMSRGRINDIFGLNDNSLEFLGIYPTLKPPYEPPVTI
notes: also called soluble dimeric R.nor ACE2; R.nor (Rodent) ACE2; source: Expi293F, purified (Ni Sepharose, Superose-6 gel filtration)
On to B1, for which the binding result in “cryo-EM structure” is “binds”.
